First the molecules themselves.
B1: 1-phosphatidylinositol 4,5-bisphosphate phosphodiesterase gamma-2, residues 772 to 827; numbered along this chain, P16885 (parent)
chain: RTVKALYDYKAKRSDELSFCRGALIHNVSKEPGGWWKGDYGTRIQQYFPSNYVEDI

± gives the uncertainty stated by the source.

The data set covers variants of B1. Briefly: abundance fitness (aPCA) (normalised: wild type 0, dead -1); higher = more abundant; growth selection in yeast, the domain comes from the species named. Particulars: Homo sapiens.
With RTVKALYDYKAKRSDELSFCRGALIHNVSKEPGGWYKGDYGTRIQQYFPSNYVEDI [W36Y], the abundance fitness is -0.368 ± 0.12. The value for RTVKALYDYKAKRSDELSFCRGALIHNVSKEPGGWIKGDYGTRIQQYFPSNYVEDI [W36I] was -0.611 ± 0.48; that for RTVKALYDYKAKRSDELSFCRGALIHNVSKEPGGWDKGDYGTRIQQYFPSNYVEDI [W36D] was -0.576 ± 0.28; that for RTVKALYDYKAKRSDELSFCRGALIHNVSKEPGGWSKGDYGTRIQQYFPSNYVEDI [W36S] was 0.22 ± 0.088.

For RTVKALYDYKAKRSDELSFCRGALIHNVSKEPGGWCKGDYGTRIQQYFPSNYVEDI [W36C], the abundance fitness was -0.108 ± 0.045.

As for RTVKALYDYKAKRSDELSFCRGALIHNVSKEPGGWLKGDYGTRIQQYFPSNYVEDI [W36L], the abundance fitness was -0.095 ± 0.06. In the case of RTVKALYDYKAKRSDELSFCRGALIHNVSKEPGGWWKGDAGTRIQQYFPSNYVEDI [Y40A], the abundance fitness is -0.3 ± 0.13.

Consider RTVKALYDYKAKRSDELSFCRGALIHNVSKEPGGWWKGDRGTRIQQYFPSNYVEDI [Y40R], for which the abundance fitness was -0.498 ± 0.067. The value for RTVKALYDYKAKRSDELSFCRGALIHNVSKEPGGWWKGDCGTRIQQYFPSNYVEDI [Y40C] was -0.061 ± 0.089; that for RTVKALYDYKAKRSDELSFCRGALIHNVSKEPGGWWKGDVGTRIQQYFPSNYVEDI [Y40V] was -0.216 ± 0.069; that for RTVKALYDYKAKRSDELSFCRGALIHNVSKEPGGWWKGDLGTRIQQYFPSNYVEDI [Y40L] was 0.041 ± 0.068.

Regarding RTVKALYDYKAKRSDELSFCRGALIHNVSKEPGGWWKGDKGTRIQQYFPSNYVEDI [Y40K], the abundance fitness turned out to be 0.189 ± 0.11. For the variant RTVKALYDYKAKRSDELSFCRGALIHNVSKEPGGWWKGDNGTRIQQYFPSNYVEDI [Y40N], the abundance fitness is -0.284 ± 0.098. Turning to RTVKALYDYKAKRSDELSFCRGALIHNVSKEPGGWWKGDSGTRIQQYFPSNYVEDI [Y40S], the abundance fitness is -0.284 ± 0.093. For RTVKALYDYKAKRSDELSFCRGALIHNVSKEPGGWWKGDQGTRIQQYFPSNYVEDI [Y40Q], the abundance fitness was -0.312 ± 0.063. For RTVKALYDYKAKRSDELSFCRGALIHNVSKEPGGWWKGDHGTRIQQYFPSNYVEDI [Y40H] the value was 0.031 ± 0.17; for RTVKALYDYKAKRSDELSFCRGALIHNVSKEPGGWWKGDEGTRIQQYFPSNYVEDI [Y40E], -0.419 ± 0.26. The value for RTVKALYDYKAKRSDELSFCRGALIHNVSKEPGGWWKGDIGTRIQQYFPSNYVEDI [Y40I] was 0.107 ± 0.12. The value for RTVKALYDYKAKRSDELSFCRGALIHNVSKEPGGWWKGDTGTRIQQYFPSNYVEDI [Y40T] was -0.265 ± 0.09. Regarding RTVKALYDYKAKRSDELSFCRGALIHNVSKEPGGWWKGDMGTRIQQYFPSNYVEDI [Y40M], the abundance fitness was -0.336 ± 0.32.

As for RTVKALYDYKAKRSDELSFCRGALIHNVSKEPGGWWKGDGGTRIQQYFPSNYVEDI [Y40G], the abundance fitness was -0.864 ± 0.085. Consider RTVKALYDYKAKRSDELSFCRGALIHNVSKEPGGWWKGDDGTRIQQYFPSNYVEDI [Y40D], for which the abundance fitness is -0.711 ± 0.47. On to RTVKALYDYKAKRSDELSFCRGALIHNVSKEPGGWWKGDWGTRIQQYFPSNYVEDI [Y40W], for which the abundance fitness is -0.713 ± 0.15. For RTVKALYDYKAKRSDELSFCRGALIHNVSKEPGGWWKGAYGTRIQQYFPSNYVEDI [D39A], the abundance fitness was -1.01 ± 0.14.

For the variant RTVKALYDYKAKRSDELSFCRGALIHNVSKEPGGWWKGTYGTRIQQYFPSNYVEDI [D39T], the abundance fitness is -0.418 ± 0.21. Take RTVKALYDYKAKRSDELSFCRGALIHNVSKEPGGWWKGSYGTRIQQYFPSNYVEDI [D39S]: the abundance fitness was -0.825 ± 0.077. Turning to RTVKALYDYKAKRSDELSFCRGALIHNVSKEPGGWWKGVYGTRIQQYFPSNYVEDI [D39V], the abundance fitness is -0.882 ± 0.18. As for RTVKALYDYKAKRSDELSFCRGALIHNVSKEPGGWWKGGYGTRIQQYFPSNYVEDI [D39G], the abundance fitness is -0.864 ± 0.13. In the case of RTVKALYDYKAKRSDELSFCRGALIHNVSKEPGGWWKGEYGTRIQQYFPSNYVEDI [D39E], the abundance fitness is -0.798 ± 0.17.

For the variant RTVKALYDYKAKRSDELSFCRGALIHNVSKEPGGWWKGQYGTRIQQYFPSNYVEDI [D39Q], the abundance fitness is -0.958 ± 0.21.

With RTVKALYDYKAKRSDELSFCRGALIHNVSKEPGGWWKGPYGTRIQQYFPSNYVEDI [D39P], the abundance fitness is -0.851 ± 0.33. RTVKALYDYKAKRSDELSFCRGALIHNVSKEPGGWWKGKYGTRIQQYFPSNYVEDI [D39K]: the abundance fitness was -0.74 ± 0.5.

With RTVKALYDYKAKRSDELSFCRGALIHNVSKEPGGWWKGRYGTRIQQYFPSNYVEDI [D39R], the abundance fitness is -1.01 ± 0.084. In the case of RTVKALYDYKAKRSDELSFCRGALIHNVSKEPGGWWKGFYGTRIQQYFPSNYVEDI [D39F], the abundance fitness was -0.486 ± 0.49. In the case of RTVKALYDYKAKRSDELSFCRGALIHNVSKEPGGWWKGWYGTRIQQYFPSNYVEDI [D39W], the abundance fitness is -0.82 ± 0.2.

Regarding RTVKALYDYKAKRSDELSFCRGALIHNVSKEPGGWWKGMYGTRIQQYFPSNYVEDI [D39M], the abundance fitness is -0.924 ± 0.36. On to RTVKALYDYKAKRSDELSFCRGALIHNVSKEPGGWWKGYYGTRIQQYFPSNYVEDI [D39Y], for which the abundance fitness is -0.31 ± 0.46. For RTVKALYDYKAKRSDELSFCRGALIHNVSKEPGGKWKGDYGTRIQQYFPSNYVEDI [W35K] the value was -0.58 ± 0.17; for RTVKALYDYKAKRSDELSFCRGALIHNVSKEPGGLWKGDYGTRIQQYFPSNYVEDI [W35L], -0.058 ± 0.072. In the case of RTVKALYDYKAKRSDELSFCRGALIHNVSKEPGGGWKGDYGTRIQQYFPSNYVEDI [W35G], the abundance fitness is -0.625 ± 0.072.

As to RTVKALYDYKAKRSDELSFCRGALIHNVSKEPGGMWKGDYGTRIQQYFPSNYVEDI [W35M], the abundance fitness is -0.225 ± 0.11. For RTVKALYDYKAKRSDELSFCRGALIHNVSKEPGGTWKGDYGTRIQQYFPSNYVEDI [W35T] the value was -0.281 ± 0.31.

Take RTVKALYDYKAKRSDELSFCRGALIHNVSKEPGGRWKGDYGTRIQQYFPSNYVEDI [W35R]: the abundance fitness stood at 0.089 ± 0.074. For RTVKALYDYKAKRSDELSFCRGALIHNVSKEPGGIWKGDYGTRIQQYFPSNYVEDI [W35I], the abundance fitness is -0.611 ± 0.32. The value for RTVKALYDYKAKRSDELSFCRGALIHNVSKEPGGPWKGDYGTRIQQYFPSNYVEDI [W35P] was -0.616 ± 0.12; that for RTVKALYDYKAKRSDELSFCRGALIHNVSKEPGGVWKGDYGTRIQQYFPSNYVEDI [W35V] was -0.29 ± 0.057; that for RTVKALYDYKAKRSDELSFCRGALIHNVSKEPGGSWKGDYGTRIQQYFPSNYVEDI [W35S] was -0.273 ± 0.14.
